Results reported in patent US20210395381A1 (OSSIANIX, published 2021).

B1: Clone 51 (VNAR)
VNAR: ARVDQTPQTITKETGESLTINCVLRDSNCALSSTLWYRTKSGSRNEESISKGGRYVETVNSGSKSFSLRINDLVVEDSGTYRCKVSHSGLCQYCHDLEDDVYGDGTAVTVNA
notes: VNAR on phage
B2: Clone 33 (VNAR)
VNAR: PRVDQTPQTITKETGESLTINCVLRDSNCALSNLYWYRKKSGSTNEESISKGGRYVETVNSGSKSFSLRINDLTVEDSGTYRCNVLVGMLSGCGFQRGDVYGGGTAVTVNA
notes: VNAR on phage
B3: Clone 55 (VNAR)
VNAR: PRVDQTPQTITKETGESLTINCVLRDSNCALSSTLWYRTKSGSRNEESISKGGRYVETVNSGSKSFSLRINDLTVEDSGTYRCNVWCLTLGCSGKWDVYGGGTAVTVNA
notes: VNAR on phage
B4: Clone 54 (VNAR)
VNAR: ARVDQTPQTITKETGESLTINCVLRDSNCALPITYWYRKKSGSTNEESISKGGRYVETVNSGSKSFSLRINDLTVKDSGTYRCNVGAQYCDREISDVYGDGTAVTVNA
notes: VNAR on phage
B5: Clone 48 (VNAR)
VNAR: ARVDQTPRSVTKETGESLTINCVLRDASYELGSTCWYRKKSGSTNEESISKGGRYVETVNSGSKSFSLRINDLTVEDGGTYRCGASFMLSHPGGCDSCVIMCQTRRQGVAACGDGTAVTVNA
notes: VNAR on phage
B6: Clone 47 (VNAR)
VNAR: PRVDQTPQTITKETGESLTINCVLRDSNCALPSTYWYRKKSGSTNEENISKGGRYVETVNSGSKSFSLKINDLTVEDSGTYRCNVIINPLSCYYLQLQDVYGGGTAVTVNA
notes: VNAR on phage
B7: Clone 34 (VNAR)
VNAR: PRVDQTPQTITKETGESLTINCVLRDSNCALSSTYWYRKKSGSTNEESISKGGRYVETVNSGSKSFSLRINDLTVEDSGTYRCNVSSNAHCDGRRRDVYGGGTAVTVNA
notes: VNAR on phage
B8: Clone 10 (VNAR)
VNAR: ARVDQTPQTITKETGESLTINCVLRDSNCALSNLYWYRKKSGSTNEESISLGGRYVETVNSGSKSFSLRINDLTVEDSGTYRCNVVQYPTAKCRQVDVYGGGTAVTVNA
notes: VNAR on phage
B9: Clone 12 (VNAR)
VNAR: ARVDQTPRSVTKETGESLTINCVLRDASYELGSTCWYRKKSGSTNEESISKGGRYVETVNSGSKSFSLRINDLTVEDGGTYRCGAWSRLSSSWGCDVGLQCMGCWDLWAACGDGTAVTVNA
notes: VNAR on phage
B10: Clone 40 (VNAR)
VNAR: ARVDQTPQTITKETGESLTINCVLRDSNCALSSTYWYRKKSGSTNEESISKGGRYVETVNSGSKSFSLRINDLTVEDSGTYRCKVVQFEKDCQGLLRQTNDVYGGGTVVTVNA
notes: VNAR on phage
B11: Clone 46 (VNAR)
VNAR: ARVDQTPRVTKETGESLTINCVLRDASYELGSTCWYRKKSGSTNEESISKGGRYVETVNSGSKSFSLRINDLTVEDGGTYRCGASGSQGQVYRCDRLTLCCLQMQWQVAACGDGTAVTVNA
notes: VNAR on phage
B12: Clone 52 (VNAR)
VNAR: PRVDQTPQTITKETGESLTINCVLRDSNCALSSTYWYRKKSGSTNEENISKGGRYVETVNSGSKSFSLRINDLTVEDSGTYRCNVAFFACQYKNDVYGGGTVVTVNA
notes: VNAR on phage
B13: Clone 58 (VNAR)
VNAR: ARVDQTPQTITKETGESLTINCVLRDSNCELSSTYWYRKKSGSTNEARISKGGRYVETVNSGSKSFSLRINDLTVEDSGTYRCNVGFSQSWGNSVGIVDVYGGGTAVTVNE
notes: VNAR on phage
B14: Clone 39 (VNAR)
VNAR: ARVDQTPQTITKETGESLTINCVLRDSNCELSSTYWYRKKSGSTNEESISLGGRYVETVNSGSKSFSLRINDLTVEDSGTYRCNVQSAMLMLCLSRFDVYGGGTAVTVNA
notes: VNAR on phage
B15: Clone 16 (VNAR)
VNAR: ARVDQTPQTITKETGESLTINCVLRDSNCALSSTYWYRKKSGSTNEENISKGGRYVETVNSGSKSFSLRINDLTVEDSGTYRCKVQSAQGMGLNGCKPGRVDVYGDGTAVTVNA
notes: VNAR on phage
B16: Clone 15 (VNAR)
VNAR: ARVDQTPRSVTKETGESLTINCVLRDASYELGSTCWYRKKSGSTNEESISKGGRYVETVNSGSKSFSLRINDLTVEDGGTYRCGAPRWQMGGQWCDGGTAACRSGMAEVAACGDGTAVTVNA
notes: VNAR on phage
B17: Clone 59 (VNAR)
VNAR: ARVDQTPQTITKETGESLTINCVLRDSNCALPSTYWYRKKSGSTNEESISKGGRYVETVNSGSKSFSLRINDLTVEDSGTYRCNVSLQFCCLSFDVYGGGTAVTVNA
notes: VNAR on phage
B18: Clone 50 (VNAR)
VNAR: ARVDQTPQTITKETGESLTINCVLRDSNCALPSTYWYRKKSDSTNEESISKGGRYVETVNSGSKSFSLRINDLTVKDSGTYRCNVLIQCCSPTCDVYGGGTAVTVNA
notes: VNAR on phage
B19: Clone 38 (VNAR)
VNAR: ARVDQTPQTITKETGESLTINCVLRDSNCALPSTYWYRKKSGSTNEESISKGGRYVETVNSGSKSFSLKINDLTVEDSGTYRCNVRIIQCCVSQDVYGGGTVVTVNA
notes: VNAR on phage
B20: Clone 13 (VNAR)
VNAR: ARVDQTPQTITKQTGESLTINCVLRDSNCALSSTYWYRKKSGSTNEESISLGGRYVETVNSGSKSFSLRINDLTVEDSGTYRCNVRRLQAWGSCRGGDVYGGGTVVTVNA
notes: VNAR on phage
B21: Clone 56 (VNAR)
VNAR: ARVDQTPQTITKETGESLTINCVLRDSNCALSSTYWYRKKSDSTNEESISKGGRYVETVNSGSKSFSLRINDLVVEDSGTYRCNVQSKEKLHCQVVVDVYGGGTAVTVNA
notes: VNAR on phage
B22: Clone 11 (VNAR)
VNAR: ARVDQTPQTITKETGESLTINCVLRDSNCALPSTYWYRKKSGSTNEESISKGGRYVETVNSGSKSFSLRINDLTVEDSGTYRCNVQWLWSFSCLPCVEDVYGGGTVVTVNA
notes: VNAR on phage
B23: Clone 60 (VNAR)
VNAR: ARVDQTPQTITKETGESLTINCVLRDSNCDLSRTYWYRKKSGSTNEESISKGGRYVETVNSGSKSFSLRINDLTVEDSGTYRCNVYNPGNGWAMYDVYGGGTAVTVNA
notes: VNAR on phage
B24: Clone 35 (VNAR)
VNAR: ARVDQTPQTITKETGESLTINCVLRDSNCALSSTYWYRKKSDSTNEESISKGGRYVETVNSGSKSFSLRINDLTVKDSGTYRCNVSEDLQAICCWNDVYGDGTAVTVNA
notes: VNAR on phage
B25: Clone 37 (VNAR)
VNAR: ARVDQTPQTITKETGESLTINCVLRDSNCALSSTYWYRKKSDSTNEESISKGGRYVETVNSGSKSFSLRINDLTVKDSGTYRCNVSEDLQAICCWNDVYGDGTAVTVNA
notes: VNAR on phage
B26: Clone 49 (VNAR)
VNAR: ARVDQTPQTITKETGESLTINCVLRDSNCALPSTYWYRKKSGSTNEESISKGGRYVETVNSGSKSFSLKINDLTVEDSGTYRCNVQGRAAYSGLVCDVYGGGTAVTVNA
notes: VNAR on phage
B27: Clone 57 (VNAR)
VNAR: ARVDQTPQTITKETGESLTINCVLRDSNCALPSTYWYRKKSGSTNEESISKGGRYVETVNSGSKSFSLRINDLTVEDSGTYRCNVRGFKQCYDLRLDVYGGGTAVTVNA
notes: VNAR on phage
B28: Clone 36 (VNAR)
VNAR: ARVDQTPQTITKETGESLTINCVLRDSNCALPSTYWYRKKSGSTNEESISKGGRYVETVNSGSKSFSLRINDLVVEDSGTYRCNVHCYGGDLHQLDVYGGGTAVTVNA
notes: VNAR on phage
B29: Clone 1 (VNAR)
VNAR: ARVDQTPQTITKETGESLTINCVLRDNNCALSTTYWYRKKSGSTNEESISLGGRYVETVNSGSKSFSLRINDLTVEDSGTYRCNVSDVVSCDDGWNWLDVYGGGTAVTVNA
notes: VNAR on phage
B30: Clone 45 (VNAR)
VNAR: AVDQTPQTITKETGESLTINCVLRDSNCALSNLYWYRKKSDSTNEESISKGGRYVETVNSGSKSFSLRINDLTVEDSGTYRCNVCWWFSSRCTTCDVYGDGTAVTVNA
notes: VNAR on phage
B31: Clone 14 (VNAR)
VNAR: ARVDQTPQTITKETGESLTINCVLRDSNCALPSTYWYRKKSGSTNEESISKGGRYVETVNSGSKSFSLRINDLTVKDSGTYRCNVMVFQVSGDYSRLEDVYGGGTVVTVNA
notes: VNAR on phage
B32: Clone 53 (VNAR)
VNAR: ARVDQTPQTITKETGESLTINCVLRDSNCALSSTYWYRKKSDSTNEESISKGGRYVETVNSGSKSFSLRINDLTVKDSGTYRCNVYLQDRPVCSPFNYDVYGGGTAVTVNA
notes: VNAR on phage

Columns and labels:
[1] = target: T1, recombinant mouse TfR-1 (mouse, UniProt Q62351 89-763); assay: phage ELISA
T1 construct: Bought recombinant protein; also called mTfR1
Method: (§1) After the third round of selection, instead of pooling bacterial colonies, individual phagemid clones were grown in 1 ml of 2TY medium containing glucose and ampicillin in 96-well blocks and used to rescue the phages. After an overnight culturing, bacteria were spun down and an aliquot of the phage supernatant was sent for Sanger sequencing (Genewiz); VNAR CDR3 sequences were identified using BioEdit (a sequence alignment editor). Another aliquot was blocked with 2.5% milk for phage ELISAs. High-binding ELISA plates (Greiner) were coated with 1 μg/ml of recombinant human or mouse TfR-1. The plates were then blocked with 2.5% milk in PBST. Blocked phages were added to the blocked plates and the VNAR-phage clones binding to the antigens were detected with HRP-labelled anti-M13 coat protein antibodies (Sino Biological), and chromogenic TMB substrate (KLM)

[2] = target: T2, recombinant human TfR-1 (human, UniProt P02786 89-760); assay: phage ELISA
T2 construct: extracellular domain; also called hTfR1; human transferrin receptor-1
Method: as §1

T2 sequence (P02786 89-760): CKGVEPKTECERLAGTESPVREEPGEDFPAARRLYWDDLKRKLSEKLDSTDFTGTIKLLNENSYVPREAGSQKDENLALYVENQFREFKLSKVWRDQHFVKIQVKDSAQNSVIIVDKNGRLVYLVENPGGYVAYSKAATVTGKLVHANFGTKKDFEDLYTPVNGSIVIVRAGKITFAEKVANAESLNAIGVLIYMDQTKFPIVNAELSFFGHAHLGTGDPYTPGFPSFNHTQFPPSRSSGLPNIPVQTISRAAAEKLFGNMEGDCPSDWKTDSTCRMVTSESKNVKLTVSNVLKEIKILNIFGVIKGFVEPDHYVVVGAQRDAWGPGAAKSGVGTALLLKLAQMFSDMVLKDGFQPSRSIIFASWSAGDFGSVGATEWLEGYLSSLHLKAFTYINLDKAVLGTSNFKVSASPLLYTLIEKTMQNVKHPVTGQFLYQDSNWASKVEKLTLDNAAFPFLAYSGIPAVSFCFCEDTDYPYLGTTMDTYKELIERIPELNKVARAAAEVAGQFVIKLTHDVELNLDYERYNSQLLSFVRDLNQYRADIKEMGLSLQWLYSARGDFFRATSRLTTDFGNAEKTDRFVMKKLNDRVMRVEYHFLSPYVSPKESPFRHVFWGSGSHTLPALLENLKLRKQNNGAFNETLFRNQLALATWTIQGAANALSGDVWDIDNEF
T1 sequence (Q62351 89-763 limits assumed): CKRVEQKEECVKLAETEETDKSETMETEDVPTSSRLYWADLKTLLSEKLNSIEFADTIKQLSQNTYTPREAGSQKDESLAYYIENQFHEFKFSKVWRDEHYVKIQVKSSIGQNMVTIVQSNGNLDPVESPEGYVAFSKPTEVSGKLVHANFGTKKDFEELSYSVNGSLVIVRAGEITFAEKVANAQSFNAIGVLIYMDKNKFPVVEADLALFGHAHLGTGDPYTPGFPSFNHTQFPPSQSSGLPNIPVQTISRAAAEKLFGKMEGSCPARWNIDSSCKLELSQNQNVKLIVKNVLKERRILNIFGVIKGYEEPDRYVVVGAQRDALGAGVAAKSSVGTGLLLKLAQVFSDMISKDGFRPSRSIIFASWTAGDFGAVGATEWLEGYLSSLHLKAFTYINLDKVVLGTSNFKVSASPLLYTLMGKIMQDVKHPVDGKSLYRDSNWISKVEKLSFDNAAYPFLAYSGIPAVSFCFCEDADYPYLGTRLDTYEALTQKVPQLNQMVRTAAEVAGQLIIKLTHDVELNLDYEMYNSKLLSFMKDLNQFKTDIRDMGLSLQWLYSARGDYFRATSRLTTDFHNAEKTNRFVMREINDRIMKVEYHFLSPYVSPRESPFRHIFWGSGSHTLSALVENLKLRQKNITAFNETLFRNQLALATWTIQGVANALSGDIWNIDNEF

Row | Binder | binding result [1] | binding result [2]
1 | B1 | no binding | 
2 | B2 | no binding | 
3 | B3 | no binding | 
4 | B4 | no binding | 
5 | B5 | no binding | 
6 | B6 | no binding | 
7 | B7 | no binding | 
8 | B8 | binds | binds
9 | B9 | binds | binds
10 | B10 | no binding | 
11 | B11 | no binding | 
12 | B12 | no binding | 
13 | B13 | no binding | 
14 | B14 | no binding | 
15 | B15 | binds | binds
16 | B16 | binds | binds

Row | Binder | binding result [1] | binding result [2]
17 | B17 | no binding | 
18 | B18 | no binding | 
19 | B19 | no binding | 
20 | B20 | binds | binds
21 | B21 | no binding | 
22 | B22 | binds | binds
23 | B23 | no binding | 
24 | B24 | no binding | 
25 | B25 | no binding | 
26 | B26 | no binding | 
27 | B27 | no binding | 
28 | B28 | no binding | 
29 | B29 | binds | binds
30 | B30 | no binding | 
31 | B31 | binds | binds
32 | B32 | no binding | 
